Reference: US10881709B2, “Immune system modulators and compositions” (Canimguide Therapeutics AB, priority 2015, dated 2021)

test system: PBMCs; assay: IL-2 induced proliferation of PBMCs, 3H-thymidine incorporation (human ex vivo model); type: cell-based; settings: PBMCs from healthy control samples, 7 days, 3H-thymidine
Method: 100 μl of RPMI1640 supplemented with 200 IU/ml penicillin, […] streptomycin, 4 mM L-glutamine (all from Sigma® Chemical Co. MO, US) and 20% heat-inactivated human serum (autologous or from cancer patients) were added to uncoated, HSA or HSA/IgG coated tissue culture microtiter plates. PBMC, isolated from healthy individuals or patients with metastatic renal cell carcinoma, were diluted in RPMI/2% HSA at a concentration of 5×10^5/ml and 100 μl were added to the microtiter wells. Interleukin-2 (IL-2, Proleukin®, Chiron®, NL), at a final concentration of 120 IU/well, was added to some wells. Cells were cultured for 7 days in a humidified, 5% CO2-atmosphere at 37° C. Proliferation was assayed by incorporation of 1.6 μCi/well of [^3H]-thymidine (Amersham® Int., UK) during the last 18 hrs. Mean values of dpm (disintegrations per minute) of triplicates were used for the calculations.
Cultures for IL-2 induced proliferation was set up with PBMC from healthy donors and autologous serum as described above with the exception that PBMC were first pre-incubated for 30 min at room temperature with the indicated albumin peptides at a concentration of 10 μg/ml.
Round-bottomed, 96-well tissue culture plates (Costar®, Corning® Inc. NY, US) were pre-coated with HSA only or HSA and pooled human IgG for intravenous injection (Gammagard®, Baxter AS, DK) as follows; HSA was diluted in RPMI1640 without supplements to a concentration of 10 mg/ml. A mixture of 1 mg/ml IgG in a solution of 9 mg/ml HSA in RPMI (HSA/IgG) was also prepared. 200 μl of HSA or HSA/IgG were then added to each well of the plate. The plates were incubated at 4° C. for 30 minutes after which the wells were washed twice with 200 μl of RPMI1640. The coated plates were used immediately. 100 μl of RPMI1640 supplemented with 200 IU/ml penicillin, […] streptomycin, 4 mM L-glutamine (all from Sigma® Chemical Co. MO, US) and 20% heat-inactivated human serum (autologous) were added to the HSA or HSA/IgG coated tissue culture microtiter wells. PBMC, isolated from healthy individuals, were diluted in RPMI/2% HSA and peptides were added directly to the cell suspension at a concentration of 10 μg/ml. One hundred μl of this cell suspension (5×10^4 lymphocytes) was then added per well providing a final concentration of 5 μg/ml peptide per well. IL-2 (Proleukin®, Chiron®, NL), at a final concentration of 120 IU/well, was added to the wells. Cells were cultured for 7 days in a humidified, 5% CO2-atmosphere at 37° C. Proliferation was assayed by incorporation of 1.6 μCi/well of [^3H]-thymidine (Amersham® Int., UK) during the last 18 hrs. Mean values of dpm (disintegrations per minute) of triplicates were used for the calculations.
The model included PBMCs isolated from venous blood samples from healthy blood donors (control samples) or cancer patients. One hundred pI of culture medium (RPMI 1640 Dutch's modification (Gibco®, InVitrogenAB®, Stockholm, Sweden) supplemented with 200 IV/ml penicillin, 200 ug/ml streptomycin, 4 mM L-glutamine (all from Sigma® Chemical Co. MO, US) and 20% heat-inactivated human serum) were added to roundbottomed, 96-well tissue culture plates (Costar®, Corning® Inc. NY, US). […] Control sample wells without IL-2 was set up in parallel. […]
The effect of different peptides on IL-2 induced proliferation was analyzed in the human ex vivo model, using PBMCs from healthy control samples. […] Proliferation was measured as incorporation of ^3H-thymidine during the final 18 hours. […]

Substance | inhibition of IL-2 induced proliferation
KVPQVSTPTLVEVSR (listed as Homo sapiens) [P3029] | none

biological target: P3028 (SEQ ID NO: 185) (Homo sapiens, UniProt P02768); assay: PEPSCAN ELISA (rampo assay): binding of His-tagged P3028 to immobilised peptides; settings: truncations, deletions, glycine substitutions
Method: Based on the structure of peptide P28R, additional peptides were identified that bind to P3028. The additional binders included deletions, truncations, and or amino acid substitutions of peptide P28R. Binding of peptides to P3028 was assayed using PEPSCAN technology. PEPSCAN technology, or “rampo” assays are biochemical binding assays, details of which are provided below:
A peptide microarray screening technology was used to measure binding of P28R (SEQ ID NO: 2) and variants of P28R to P3028 (SEQ ID NO: 185). In this technology libraries of synthetic peptides are synthesized and covalently linked onto polypropylene microarray chips. The linear peptides were synthesized onto credit-card format polypropylene cards (455 peptide formats/card) as described by (Timmerman et al., 2004) using standard Fmoc-chemistry using hexamethylenediamine (HMDA) as linker and deprotection using trifluoroacetic acid (TFA) with scavengers.
The binding of His-tagged P3028 to each peptide on the card was tested in an ELISA assay. The 455-well credit card format polypropylene cards containing the covalently linked peptides were incubated with His-tagged P3028 peptide (PGE73) solution consisting of 0.5 μg/mL diluted in blocking solution (4% horse serum, 5% ovalbumin (w/v) in PBS/1% Tween). After washing, the peptides were incubated with a monoclonal mouse anti-His-tag antibody (Novagen®, 70796-3, diluted 1/1000 in the incubation buffer) and subsequently after washing with a rabbit-anti-mouse antibody peroxidase (Rampo) conjugate (Southern Biotech®, 6175-05, diluted 1/1000), for one hour at 25° C. After washing, the peroxidase substrate 2,2′-azine-di-3-ethylbenzthiazoline sulfonate (ABTS) and 2 μL of 3% H2O2 were added. The binding capacity of the mAb was measured as a color development at 405 nm (optical density, OD405). The color development was quantified with a charge-coupled device (CCD)—camera and an image processing system.
The OD405-values obtained by a CCD-camera was considered as raw data values (“rampo values,” “rampo units,” or “rampo scores”). The values mostly ranged from 0 to 3000, a log scale similar to 1 to 3 of a standard 96-well plate ELISA-reader. First the CCD-camera made a picture of the card before peroxidase coloring and then again a picture after the peroxidase coloring. […] These values were copied into an excel file and labeled as a raw data file. One follow-up manipulation was allowed. Sometimes a well can contain an air-bubble resulting in a false-positive value. If manual inspection of the cards detect an air-bubble the value are set to 0 for that well.
A library of peptides tested for binding to peptide P3028 included all substitutions for each position of the peptide P28R (SEQ ID NO: 2) (i.e., 19 substitutions for each position). The results of the binding experiments are shown in FIGS. 27, 28, 29 and 30 and Table 5.1. […] P28R had rampo values ranging between 262 and 460 with a mean value of 370. […] In addition, M and S in position 7 (SEQ ID NOs: 9 and 10, respectively), and Q and M in position 11 (SEQ ID NOs: 15 and 16, respectively) all have rampo values over 700.
For each position of P28R, the rampo scores of the group of 19 different peptides containing an L-amino acid substitution were compared to the rampo score of a control sample P28R peptide (SEQ ID NO: 2) for that group. Single-amino acid substitutions having a rampo score greater than or substantially equivalent to P28R were identified. As used herein, a rampo score “substantially equivalent to P28R” is a rampo score that is at least 98% of the rampo score of P28R. Thus, variants of P28R having equivalent or better binding to P3028 were identified.

Substance | rampo score / affinity to P3028 compared with P28R
KKLDGFFVKLSLFTER [SEQ ID NO: 95] | comparable to P28R
KKLTFFVKLSLFTER [SEQ ID NO: 64] | comparable to, or higher than peptide P28R
KKGDTFFVKLSLFTER [SEQ ID NO: 287] | comparable to P28R
KKFFVKLSLFTER [SEQ ID NO: 76] | comparable to, or higher than peptide P28R
KKLDTFVKLSLFTER [SEQ ID NO: 65] | comparable to, or higher than peptide P28R
KKLDTFFVKLSLFTE [SEQ ID NO: 34] | retained a high affinity
KKLDTFFVKLGLFTER [SEQ ID NO: 99] | comparable to P28R
KKLDTFFVGLSLFTER [SEQ ID NO: 98] | comparable to P28R
KKLDTFFVKLSFTER [SEQ ID NO: 68] | comparable to, or higher than peptide P28R
KKLDTFGVKLSLFTER [SEQ ID NO: 96] | comparable to P28R
FVKL [SEQ ID NO: 63] | comparable rampo score

test system: PBMCs from healthy control person; assay: PBMC activation (CD69/CD71, flow cytometry) in RPMI plus 10% human AB serum; type: cell-based; settings: 40 μg/mL, 24 hours, healthy PBMCs
Method: The activity of peptide P28R (SEQ ID NO: 2) and modifications of P28R was studied in a human ex vivo model using PBMCs in short term cultures, 24 or 48 hours. Effects of P28R and modifications of P28R on PBMCs from a healthy control person were studied. Activation was measured as percentage of cells with enhanced marker CD69 using flow cytometry. PBMCs were incubated with the peptides (40 μg/mL) for 24 hours in RPMI plus 10% human AB serum.
As observed in Example 37, P28R (SEQ ID NO: 2) can stimulate PBMCs from healthy controls in short term cultures when RPMI plus 10% normal human AB serum is used as culture medium. Truncations of P28R were also assessed for their ability to activate PBMCs. PBMCs were incubated with the peptides (40 μg/mL) for 24 hours in RPMI plus 10% human AB serum. PBMC activation was measured as percent cells with enhanced expression of either CD69 (FIG. 42A) or CD71 (FIG. 42B) using flow cytometry. Two experiments were performed for each peptide.
Effects of modified peptides on activation of PBMCs from healthy control person were assessed. Activation was determined as percentage of cells with enhanced marker CD69 or CD71 using flow cytometry. PBMCs were incubated with the peptides (40 μg/mL) for 48 hours in RPMI plus 10% human AB serum.

Substance | PBMC activation, enhanced CD69 or CD71
KKLDTFFPKLSLFTER [SEQ ID NO: 329] | did not activate

same assay, conditions: 40 μg/mL, 24 hours, healthy control person

Substance | PBMC activation, cells with enhanced CD69
KSLDTFFVKLSLFTER [SEQ ID NO: 510] | did not stimulate
KKLDTFFVKLSLFTFR [SEQ ID NO: 571] | did not stimulate
KKLDTVMVKLQLMTER [compound 30680] | induced activation
KKLDTFFVDLSLFTER [SEQ ID NO: 569] | did not stimulate
KKLDTFFVNLSLFTER [SEQ ID NO: 518] | did not stimulate

same assay, conditions: 40 μg/mL, 48 hours, healthy control person

Substance | PBMC activation, enhanced CD69 and CD71
RKLDTFFVKLSLFTERRR [compound 32814] | stimulatory effect in short term cultures similar to that of P28R
